The text below walks through data of paper PMC10673611 (Molecules, 2023).

In the assay the target is T1, programmed death ligand 1 (PD-L1) (Homo sapiens, UniProt Q9NZQ7).
T1 construct: human programmed death ligand 1; HEK293 transient, Ni Sepharose and SEC; also called hPD-L1
Briefly: ELISA; indirect ELISA; MaxiSorp plates coated with protein overnight at 4 °C, blocked with 1% BSA in PBS, ligands diluted in PBS 1 h at RT, detection with anti-IgG Fc or anti-His-Tag antibody and HRP-streptavidin, TMB; the paper does not say for each pair which partner was coated. As to conditions: both partners purified. (In an ELISA, binding on a coated surface is turned into a signal by an enzyme label.)

T1 sequence (Q9NZQ7 19-290): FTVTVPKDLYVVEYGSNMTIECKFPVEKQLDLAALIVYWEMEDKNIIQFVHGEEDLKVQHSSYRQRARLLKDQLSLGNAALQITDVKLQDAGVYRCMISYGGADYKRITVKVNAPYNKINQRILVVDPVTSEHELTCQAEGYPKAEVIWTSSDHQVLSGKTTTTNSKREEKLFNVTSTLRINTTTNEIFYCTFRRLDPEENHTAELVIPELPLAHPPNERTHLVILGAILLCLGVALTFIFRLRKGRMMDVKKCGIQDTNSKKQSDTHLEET

B1: durvalumab-based anti-hPD-L1 IgG4 antibody C5 (antibody, V domains shown)
VH: EVQLVESGGGLVQPGGSLRLSCAASGFTFSRYWMSWVRQAPGKGLEWVALISRDGSETYYVDSVKGRFTISRDNAKNSLYLQMNSLRAEDTAVYYCAREGGWFGELAFDYWGQGTLVTVSS
VL: IVLTQSPGTLSLSPGERATLSCKASEDIGTWLAWYQQKPGQAPRLLIYDASSRATGIPDRFSGSGSGTDFTLTISRLEPEDFAVYYCQQYGSLPWTFGQGTKVEIK
notes: IgG4 heavy chain; IgG4; recombinant human anti-PD-L1 antibody, previously modeled, durvalumab-based; also called C5 antibody; full C5 antibody; source: produced by Recepton, purified (MabSelect Sure, SEC); copies: 2 + 2
Turning to B1, the binding result was “binds”.

B2: C5M1A, asymmetric knob-into-hole C5 IgG4 with one of the Fabs replaced by M1 (bispecific antibody, V domains shown)
VH: B1 VH
VL: B1 VL
notes: it replaces one Fab; human IgG4 constant region, hinge and Fc as in the heavy chain of m7, with knob-into-hole mutations; copies: 1 + 1 + 1
B2: the binding result is reported as “binds”.

B3: C5M1B, C5 scFv with M1 attached to its C-terminus by a (GGGGS)4 linker (bispecific antibody, V domains shown)
VH: B1 VH
VL: B1 VL
notes: linker printed as (GGGGS)4
As to B3, the binding result was “binds”.
